Values belong to the molecule of their own block, whether it stands above or below them. No end group written: not given here.
Assays:
[1] = test system: 5-HT1B/D receptors; test: Relative activity at 1 nM, [3H]5-HT binding; conditions: 1 nM peptide or amino acid, 30 nM [3H]5-HT
Method: (§1) The binding experiments were performed as described above. […] Each value corresponds to the mean ± the standard deviation of three independent tests performed in quintuplicate.

[2] = test system: 5-HT1B/D receptors; test: Relative activity at 1 nM, [125I]cyanopindolol binding; conditions: 1 nM peptide or amino acid, 0.3 nM [125I]cyanopindolol
Method: as §1

[3] = biological target: 5-HT1B/1D receptors; test: inhibition of 30 nM [3H]5-HT binding, 1 nM peptide
[4] = biological target: 5-HT1B/1D receptors; test: inhibition of [3H]5-HT or [125I]cyanopindolol binding to 5-HT1B/1D type receptors
[5] = biological target: T1, 5-HT1B receptor of rat brain (rat, UniProt P28564 1-386); test: inhibition of 0.3 nM [125I]cyanopindolol binding, 1 nM peptide
T1 construct: whole, on cells
T1 sequence (P28564 whole entry): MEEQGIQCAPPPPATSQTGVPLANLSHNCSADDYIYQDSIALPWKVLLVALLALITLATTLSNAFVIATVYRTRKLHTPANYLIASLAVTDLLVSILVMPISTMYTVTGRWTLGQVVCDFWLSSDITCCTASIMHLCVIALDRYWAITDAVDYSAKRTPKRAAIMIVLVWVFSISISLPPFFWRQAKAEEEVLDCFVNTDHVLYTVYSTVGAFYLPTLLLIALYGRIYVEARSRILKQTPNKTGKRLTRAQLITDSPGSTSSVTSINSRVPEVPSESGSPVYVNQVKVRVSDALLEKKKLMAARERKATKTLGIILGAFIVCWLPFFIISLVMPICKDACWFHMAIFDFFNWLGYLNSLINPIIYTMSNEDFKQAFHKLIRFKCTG

[6] = test system: 5-HT1B/1D type receptors; test: Binding of [3H]5-HT or [125I]cyanopindolol to 5-HT1B/1D type receptors (short peptides)
[7] = test system: mouse; test: Forced swimming test (Porsolt); assay type: in vivo; conditions: reference antidepressants
Text: The forced swimming test (Porsolt) is a simple test which cannot, under any circumstances, be assimilated with a model of “depression”.

[8] = test system: 5-HT receptor; test: Ligand activity of modified LSAL peptides on the 5-HT receptor; assay type: binding
[9] = biological target: 5-HT2A receptor of rat brain (rat) (UniProt P14842); test: radioligand binding, rat brain membranes, [3H]ketanserin (5 nM), 1 nM peptide
Sequence of 5-HT2A receptor of rat brain (rat) (P14842 whole entry): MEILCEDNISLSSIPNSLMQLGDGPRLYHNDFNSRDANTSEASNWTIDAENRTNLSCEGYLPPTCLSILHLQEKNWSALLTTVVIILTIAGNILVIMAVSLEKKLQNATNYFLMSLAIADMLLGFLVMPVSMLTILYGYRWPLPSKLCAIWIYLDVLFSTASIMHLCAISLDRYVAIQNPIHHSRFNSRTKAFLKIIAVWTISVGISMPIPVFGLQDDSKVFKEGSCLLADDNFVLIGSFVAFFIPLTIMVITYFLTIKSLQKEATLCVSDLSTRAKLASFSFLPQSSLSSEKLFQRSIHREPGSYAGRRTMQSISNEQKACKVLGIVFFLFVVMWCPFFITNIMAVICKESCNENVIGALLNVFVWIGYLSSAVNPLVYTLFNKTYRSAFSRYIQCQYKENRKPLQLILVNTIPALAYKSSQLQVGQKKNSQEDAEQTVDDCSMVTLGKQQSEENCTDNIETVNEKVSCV

[10] = biological target: H1 histaminergic receptor of rat brain (rat) (UniProt P31390); test: radioligand binding, rat brain membranes, [3H]mepyramine (5 nM), 1 nM peptide
Sequence of H1 histaminergic receptor of rat brain (rat) (P31390 whole entry): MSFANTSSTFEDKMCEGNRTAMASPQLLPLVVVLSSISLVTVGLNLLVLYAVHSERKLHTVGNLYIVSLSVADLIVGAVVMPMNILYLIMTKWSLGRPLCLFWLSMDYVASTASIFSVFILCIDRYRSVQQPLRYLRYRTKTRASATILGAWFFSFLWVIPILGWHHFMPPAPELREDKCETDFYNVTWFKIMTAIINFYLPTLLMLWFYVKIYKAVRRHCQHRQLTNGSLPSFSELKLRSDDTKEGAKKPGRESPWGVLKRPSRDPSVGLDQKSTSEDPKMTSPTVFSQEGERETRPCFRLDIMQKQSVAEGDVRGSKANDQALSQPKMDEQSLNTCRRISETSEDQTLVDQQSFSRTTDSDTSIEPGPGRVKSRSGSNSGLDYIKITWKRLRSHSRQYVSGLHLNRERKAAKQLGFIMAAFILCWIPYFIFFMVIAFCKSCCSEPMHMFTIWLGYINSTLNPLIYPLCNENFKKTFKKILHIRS

[11] = biological target: T1, 5-HT1B receptor of rat brain; test: inhibition of [125I]cyanopindolol binding, rat cerebral tissue homogenates
[12] = biological target: 5-HT3 receptor of rat brain (rat) (UniProt P35563); test: radioligand binding, rat brain membranes, [3H]BRL 43694 (3 nM), 1 nM peptide
Sequence of 5-HT3 receptor of rat brain (rat) (P35563 24-483): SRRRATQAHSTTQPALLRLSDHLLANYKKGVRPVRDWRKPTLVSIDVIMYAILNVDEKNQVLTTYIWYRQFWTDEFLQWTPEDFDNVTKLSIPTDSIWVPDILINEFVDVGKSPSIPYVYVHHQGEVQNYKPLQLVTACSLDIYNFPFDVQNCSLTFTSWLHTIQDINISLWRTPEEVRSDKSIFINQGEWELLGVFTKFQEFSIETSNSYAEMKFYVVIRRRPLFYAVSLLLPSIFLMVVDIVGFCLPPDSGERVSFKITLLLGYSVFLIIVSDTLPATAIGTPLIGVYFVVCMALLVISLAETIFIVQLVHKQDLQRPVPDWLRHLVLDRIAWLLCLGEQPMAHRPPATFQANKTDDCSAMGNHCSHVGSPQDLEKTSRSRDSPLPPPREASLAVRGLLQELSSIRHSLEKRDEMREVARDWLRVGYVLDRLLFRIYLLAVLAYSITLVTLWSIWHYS

[13] = biological target: muscarinic receptors of rat brain; test: radioligand binding, rat brain membranes, [3H]quinuclidinyl benzilate (3 nM), 1 nM peptide
[14] = biological target: D2 dopaminergic receptor of rat brain (rat) (UniProt P61169); test: radioligand binding, rat brain membranes, [3H]epiperone (2 nM) + 10 µM 5-HT, 1 nM peptide
Sequence of D2 dopaminergic receptor of rat brain (rat) (P61169 whole entry): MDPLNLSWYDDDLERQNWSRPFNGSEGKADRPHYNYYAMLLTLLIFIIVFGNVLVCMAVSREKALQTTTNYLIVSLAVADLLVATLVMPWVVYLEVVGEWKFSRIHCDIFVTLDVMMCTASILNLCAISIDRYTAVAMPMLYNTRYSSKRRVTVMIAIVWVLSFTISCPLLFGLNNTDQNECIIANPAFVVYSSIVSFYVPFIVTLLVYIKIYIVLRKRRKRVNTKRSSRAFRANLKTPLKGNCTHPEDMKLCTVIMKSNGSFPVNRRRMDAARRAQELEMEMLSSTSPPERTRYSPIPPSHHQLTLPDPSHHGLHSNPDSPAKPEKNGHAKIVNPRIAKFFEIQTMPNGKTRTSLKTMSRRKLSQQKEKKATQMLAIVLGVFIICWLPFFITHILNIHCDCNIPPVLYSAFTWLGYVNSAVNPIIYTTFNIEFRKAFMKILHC

[15] = biological target: 5-HT2A receptor of rat brain (rat) (UniProt P14842); test: radioligand binding, rat brain membranes, [3H]DOB (5 nM), 1 nM peptide
[16] = biological target: 5-HT1B/1D receptors; test: inhibition of [3H]5-HT binding to 5-HT1nonA sites
[17] = biological target: 5-HT1B/1D receptors; test: cell-based or functional assay
[18] = biological target: 5-HT1 receptors; test: inhibition of [3H]5-HT binding to 5-HT1 receptors, 10^-9 M peptide
[19] = biological target: 5-HT1 receptors; test: inhibition of [3H]5-HT binding to 5-HT1 receptors
[20] = biological target: 5-HT1B/1D receptors; test: radioligand binding, rat brain membranes, [3H]5-HT (30 nM) + 0.1 µM 8-OH-DPAT, 1 nM peptide
[21] = biological target: T2, 5-HT1D receptors in guinea pigs (guinea pig, UniProt Q60484 1-376); test: inhibition of [3H]5-HT binding to 5-HT1D receptors, guinea pig
T2 construct: Native tissue; preparation not described
T2 sequence (Q60484 whole entry): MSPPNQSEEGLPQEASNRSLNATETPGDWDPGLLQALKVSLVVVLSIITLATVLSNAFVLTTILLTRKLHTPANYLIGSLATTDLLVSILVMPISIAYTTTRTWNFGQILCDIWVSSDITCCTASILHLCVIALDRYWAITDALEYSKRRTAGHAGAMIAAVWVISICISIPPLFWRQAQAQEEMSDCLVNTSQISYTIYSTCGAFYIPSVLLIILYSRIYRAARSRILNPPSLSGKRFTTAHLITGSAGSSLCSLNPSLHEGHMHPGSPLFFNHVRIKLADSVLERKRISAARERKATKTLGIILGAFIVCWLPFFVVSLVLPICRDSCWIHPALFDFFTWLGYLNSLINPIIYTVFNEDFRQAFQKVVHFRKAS

[22] = biological target: T3, 5-HT1D receptors of human brain (human, UniProt P28221 1-377); test: inhibition of [3H]5-HT binding to 5-HT1D receptors, human brain
T3 construct: whole, on cells; Native tissue; preparation not described
T3 sequence (P28221 whole entry): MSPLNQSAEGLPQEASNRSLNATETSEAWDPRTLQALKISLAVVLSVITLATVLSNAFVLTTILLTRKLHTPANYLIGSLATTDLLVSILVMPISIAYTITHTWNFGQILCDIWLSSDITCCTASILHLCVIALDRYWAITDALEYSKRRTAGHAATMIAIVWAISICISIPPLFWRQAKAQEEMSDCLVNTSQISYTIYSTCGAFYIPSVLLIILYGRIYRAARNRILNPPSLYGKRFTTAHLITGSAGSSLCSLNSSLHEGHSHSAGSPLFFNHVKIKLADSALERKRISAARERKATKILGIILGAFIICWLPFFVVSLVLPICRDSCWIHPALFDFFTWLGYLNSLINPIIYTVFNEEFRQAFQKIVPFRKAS

[23] = biological target: opiate receptors of rat brain; test: radioligand binding, rat brain membranes, [3H]naloxone (2 nM), 1 nM peptide
[24] = biological target: 5-HT1A receptors of rat brain (rat) (UniProt P19327); test: radioligand binding, rat brain membranes, [3H]8-OH-DPAT (3 nM), 1 nM peptide
Sequence of 5-HT1A receptors of rat brain (rat) (P19327 whole entry): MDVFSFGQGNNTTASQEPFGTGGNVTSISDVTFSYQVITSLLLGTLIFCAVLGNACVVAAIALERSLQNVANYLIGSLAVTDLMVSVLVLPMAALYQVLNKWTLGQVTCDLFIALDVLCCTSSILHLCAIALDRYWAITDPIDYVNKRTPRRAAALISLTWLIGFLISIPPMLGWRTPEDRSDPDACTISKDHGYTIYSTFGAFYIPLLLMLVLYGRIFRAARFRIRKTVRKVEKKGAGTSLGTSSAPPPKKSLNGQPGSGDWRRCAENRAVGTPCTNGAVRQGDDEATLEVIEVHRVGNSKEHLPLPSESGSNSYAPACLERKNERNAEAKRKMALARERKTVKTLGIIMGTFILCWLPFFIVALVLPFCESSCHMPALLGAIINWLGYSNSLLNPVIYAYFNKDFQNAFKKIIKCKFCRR

[25] = biological target: β adrenergic receptors of rat brain; test: radioligand binding, rat brain membranes, [3H]dihydroalprenolol (3 nM) + 5-HT, 1 nM peptide
[26] = biological target: benzodiazepine receptors of rat brain; test: radioligand binding, rat brain membranes, [3H]flunitrazepam (3 nM), 1 nM peptide
[27] = biological target: 5-HT1EFC; test: radioligand binding, rat brain membranes, [3H]5-HT (30 nM) + 20 nM 5-CT, 1 nM peptide
[28] = biological target: α1 adrenergic receptors of rat brain; test: radioligand binding, rat brain membranes, [3H]prazosin (2 nM), 1 nM peptide

- relative potency (% of the LSAL effect) (% of the LSAL effect) [3]: 26.7
Molecule: AC-LEU-SER-ALA-LEU (peptide)

- relative potency (% of the LSAL effect) (% of the LSAL effect) [3]: 28
- IC50 [4]: 1000 nM
- relative potency (% of the LSAL effect) (% of the LSAL effect) [5]: 33.8
Molecule: Ala-Leu-Ser (peptide)

- relative potency (% of the LSAL effect) (% of the LSAL effect) [3]: 1
- relative potency (% of the LSAL effect) (% of the LSAL effect) [5]: 1.7
Molecule: LEU-ALA (peptide)

- RELATIVE POTENCY, Receptors 5-HT1B/D ([3H]5-HT) [1]: 0 ± 5 percentage of the LSAL effect
- RELATIVE POTENCY, Receptors 5-HT1B/D ([125I]-cyanopindolol) [2]: 0 ± 1.7 percentage of the LSAL effect
Molecule: N[C@@H](CO)C(=O)O [SER]

- relative potency (% of the LSAL effect) (% of the LSAL effect) [3]: 10
- relative potency (% of the LSAL effect) (% of the LSAL effect) [5]: 23.6
Molecule: Ala-Leu-Leu-Ser (peptide)

- relative potency (% of the LSAL effect) (% of the LSAL effect) [3]: 4
Molecule: SER-LEU (peptide)

- relative potency (% of the LSAL effect) (% of the LSAL effect) [3]: 50
- IC50 [4]: 1000 nM
- relative potency (% of the LSAL effect) (% of the LSAL effect) [5]: 61.5
Molecule: Ala-Leu (peptide)

- relative potency (% of the LSAL effect) (% of the LSAL effect) [3]: 80.9
B2: Leu-Ser-Ala-Leu-Gly-Gly-Gly-Tyr (peptide)
peptide: LSALGGGY

More lines, now with the values behind:

Molecule: C[C@H](N)C(=O)O [ALA]
- RELATIVE POTENCY, Receptors 5-HT1B/D ([3H]5-HT) [1]: 0 ± 4 percentage of the LSAL effect
- RELATIVE POTENCY, Receptors 5-HT1B/D ([125I]-cyanopindolol) [2]: 1.7 ± 1.68 percentage of the LSAL effect

Molecule: AC-LEU-SER-ALA-LEU
- RELATIVE POTENCY, Receptors 5-HT1B/D ([3H]5-HT) [1]: 26.7 ± 10 percentage of the LSAL effect

Molecule: Ala-Leu-Leu-Ser (ALLS; printed: ALA-LEU-LEU-SER) [comparison peptide]
- RELATIVE POTENCY, Receptors 5-HT1B/D ([3H]5-HT) [1]: 10 ± 15 percentage of the LSAL effect
- RELATIVE POTENCY, Receptors 5-HT1B/D ([125I]-cyanopindolol) [2]: 23.6 ± 10.6 percentage of the LSAL effect
- activity on binding to the 5-HT1B/1D type receptors [6]: inactive

Molecule: CC(C)C[C@H](N)C(=O)O [LEU]
- RELATIVE POTENCY, Receptors 5-HT1B/D ([3H]5-HT) [1]: 2 ± 9 percentage of the LSAL effect
- RELATIVE POTENCY, Receptors 5-HT1B/D ([125I]-cyanopindolol) [2]: 0 ± 2 percentage of the LSAL effect

Molecule: CN1Cc2c(N)cccc2C(c2ccccc2)C1 (stereo not shown) [nomifensine]
- activity in the forced swimming test compared with the peptide [7]: much more effective than the peptide

Molecule: β-ALA-LEU (peptide)
- relative potency (% of the LSAL effect) (% of the LSAL effect) [3]: 0

Molecule: D-ALA-LEU (peptide)
- relative potency (% of the LSAL effect) (% of the LSAL effect) [3]: 0

Molecule: Ala-Leu-Ser (ALS)
- RELATIVE POTENCY, Receptors 5-HT1B/D ([3H]5-HT) [1]: 28 ± 10 percentage of the LSAL effect
- RELATIVE POTENCY, Receptors 5-HT1B/D ([125I]-cyanopindolol) [2]: 33.8 ± 10 percentage of the LSAL effect
- IC50 [6]: 1000 nM

Molecule: LSALGGGY
- RELATIVE POTENCY, Receptors 5-HT1B/D ([3H]5-HT) [1]: 80.9 ± 9.5 percentage of the LSAL effect
- ligand activity on the 5-HT receptor [8]: still having a substantial activity

Molecule: β-ALA-DL-LEU (peptide)
- relative potency (% of the LSAL effect) (% of the LSAL effect) [3]: 2

Molecule: Leu-Ser (peptide)
- relative potency (% of the LSAL effect) (% of the LSAL effect) [3]: 45.7
- IC50 [4]: 10000 nM
- relative potency (% of the LSAL effect) (% of the LSAL effect) [5]: 53.8

Molecule: LEU-SER-ALA-LEU-NH2 (peptide)
- relative potency (% of the LSAL effect) (% of the LSAL effect) [3]: 83.3

Molecule: Leu-Ser-Ala-Leu-NH2
- RELATIVE POTENCY, Receptors 5-HT1B/D ([3H]5-HT) [1]: 83.3 ± 16 percentage of the LSAL effect

B1: Leu-Ser-Ala-Leu (peptide)
peptide: LSAL
notes: also called LSAL; the peptide
- inhibitory effect as % of the control (% of the control) [9]: 10
- inhibitory effect as % of the control (% of the control) [10]: 10
- IC50 [11]: 0.01 nM
- inhibitory effect as % of the control (% of the control) [12]: 0
- relative potency (% of the LSAL effect) (% of the LSAL effect) [3]: 100
- inhibitory effect as % of the control (% of the control) [13]: 0
- inhibitory effect as % of the control (% of the control) [14]: 2
- inhibitory effect as % of the control (% of the control) [15]: 2
- IC50 [16]: 0.01 nM
- K+-induced liberation of [3H]5-HT from rat brain hippocampus synaptosomes, apparent IC50 [17]: 0.01 nM
- maximum inhibitory effect [18]: 30 to 50%
- IC50 [19]: 0.01 nM
- inhibitory effect as % of the control (% of the control) [20]: 75
- IC50 [21]: 0.01 nM
- IC50 [22]: 0.01 nM
- inhibitory effect as % of the control (% of the control) [23]: 10
- inhibitory effect as % of the control (% of the control) [24]: 0
- inhibitory effect as % of the control (% of the control) [25]: 10
- inhibitory effect as % of the control (% of the control) [26]: 2
- inhibitory effect as % of the control (% of the control) [27]: 0
- inhibitory effect as % of the control (% of the control) [28]: 5

Source: US6713443B1, “Compounds which modify serotoninergic transmission, diagnostic and therapeutic applications” (Institut Pasteur, priority 1993, dated 2004)
